Assay results as given in patent US20120077957A1 (PALATIN TECHNOLOGIES, published 2012).
Where two headings read alike, the source gives them in different places. Numbered stars: 1 amine (or outer) side, 2 acyl side, 3 side chain; on linkers, the order of the positions; unused ones are H or OH. Bridge positions count the residues as written; N and C are the ends. Square brackets hold non-standard residues; d marks the D form. * marks the point of attachment. Ser(Bzl) = O-benzyl-serine, O=C([C@H](COCc1ccccc1)N[*:1])[*:2]; Pro(trans-4-NH2) = O=C([C@@H]1C[C@@H](N[*:3])CN1[*:1])[*:2]; Met(O2) = CS(=O)(=O)CC[C@H](N)C(=O)O; Hyp = O=C(O)[C@@H]1C[C@@H](O)CN1; Cit = NC(=O)NCCC[C@H](N)C(=O)O; Orn = NCCC[C@H](N)C(=O)O; Dab = NCC[C@H](N)C(=O)O; NHcPr = C1CC1N*

Key:
[1] = target: T1, human melanocortin-4 receptor (recombinant hMC4-R) (human, UniProt P32245 1-332); assay: cell-based or functional assay
T1 sequence (P32245 whole entry): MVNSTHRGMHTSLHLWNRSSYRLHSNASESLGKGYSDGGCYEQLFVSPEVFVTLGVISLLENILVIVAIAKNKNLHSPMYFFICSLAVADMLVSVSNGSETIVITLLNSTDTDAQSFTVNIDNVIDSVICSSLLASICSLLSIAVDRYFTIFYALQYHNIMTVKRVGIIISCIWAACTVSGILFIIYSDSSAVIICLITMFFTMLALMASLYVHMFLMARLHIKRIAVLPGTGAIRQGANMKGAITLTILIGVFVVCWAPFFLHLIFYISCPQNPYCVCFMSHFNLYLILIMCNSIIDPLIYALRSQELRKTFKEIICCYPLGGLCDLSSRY

[2] = target: T1, human melanocortin-4 receptor …; assay: cell-based or functional assay; remark: listed apart in the source
[3] = target: T1, human melanocortin-4 receptor …; assay: competition with labelled NDP-α-MSH ([I125] or Eu), hMC4-R HEK-293 membranes
Experimental: After incubation for 60 minutes at 37° C., the assay mixture was filtered and the membranes washed three times with ice-cold buffer. Filters were dried and counted in a gamma counter for bound radioactivity. […] Maximal specific binding (100%) was defined as the difference in radioactivity (cpm) bound to cell membranes in the absence and presence of 1 μM NDP-α-MSH. […] Ki values for test peptides of the present invention were determined using Graph-Pad Prism® curve-fitting software.
After incubation for 90 minutes at 37° C., the reaction was stopped by filtration over AcroWell 96-well filter plates (Pall Life Sciences). The filter plates were washed 4 times with 200 μL of ice-cold phosphate-buffered saline. DELFIA Enhancement solution (PerkinElmer Life Sciences) was added to each well. The plates were incubated on a shaker for 15 minutes and read at 340 nm excitation and 615 nm emission wavelengths. Each assay was conducted in duplicate and mean values were utilized. Ki values were determined by curve-fitting with Graph-Pad Prism® software using a one-site fixed-slope competition binding model.

Binder | Ec50 (nM), cAMP [1] [nM] | Emax (%), cAMP [1] [%] | Emax (%), cAMP [2] [%] | Ec50 (nM), cAMP [2] [nM] | Ki [3] [nM]
Ac-RD[Orn][dF]RWK-NH2 (lactam 2-7) [Asp...Lys analog of peptide No. 8: Ac-Arg-cyclo(Asp-Orn-D-Phe-Arg-Trp-Lys)-NH2] | 0.8 | 79 | – | – | –
Ac-RD[Dab][dF]RWK-OH (lactam 2-7) [Asp...Lys analog of peptides No. 5 and No. 42: Ac-Arg-cyclo(Asp-Dab-D-Phe-Arg-Trp-Lys)-OH] | 4 | 91 | 91 | 4 | –
Ac-RE[Cit][dF]RW[Orn]-NH2 (lactam 2-7) [Peptide No. 15: Ac-Arg-cyclo(Glu-Cit-D-Phe-Arg-Trp-Orn)-NH2] | – | 87 | – | – | –
Ac-DQ[dF]RWK-NH2 (lactam 1-6; SMILES CC(=O)N[C@H]1CC(=O)NCCCC[C@@H](C(N)=O)NC(=O)[C@H](Cc2c[nH]c3ccccc23)NC(=O)[C@H](CCCNC(=N)N)NC(=O)[C@@H](Cc2ccccc2)NC(=O)[C@H](CCC(N)=O)NC1=O, also called Peptide Structure (Asp...Lys) in the row of No. 21) [Asp...Lys analog of peptide No. 21: Ac-cyclo(Asp-Gln-D-Phe-Arg-Trp-Lys)-NH2] | 148 | 35 | – | – | 99
Ac-RD[Orn][dF]RWK-OH (lactam 2-7) [Asp...Lys analog of peptide No. 7: Ac-Arg-cyclo(Asp-Orn-D-Phe-Arg-Trp-Lys)-OH] | 12 | 84 | – | – | –
Ac-RDH[dF]RWK-OH (lactam 2-7) [Asp...Lys analog of peptides No. 3 and No. 37: Ac-Arg-cyclo(Asp-His-D-Phe-Arg-Trp-Lys)-OH] | – | 91 | 91 | – | –
Ac-RD[Hyp][dF]RWK-NH2 (lactam 2-7, also called Peptide Structure (Asp...Lys) in the row of No. 14) [Asp...Lys analog of peptide No. 14: Ac-Arg-cyclo(Asp-Hyp-D-Phe-Arg-Trp-Lys)-NH2] | 27 | 39 | – | – | 4
Ac-RDN[dF]RWK-OH (lactam 2-7, also called Peptide Structure (Asp...Lys) in the row of No. 20) [Asp...Lys analog of peptide No. 20: Ac-Arg-cyclo(Asp-Asn-D-Phe-Arg-Trp-Lys)-OH] | 81 | 73 | – | – | 100
Ac-RDQ[dF]RWK-OH (lactam 2-7, also called Peptide Structure (Asp...Lys) in the row of No. 11) [Asp...Lys analog of peptide No. 11: Ac-Arg-cyclo(Asp-Gln-D-Phe-Arg-Trp-Lys)-OH] | 19 | 80 | – | – | 115
Ac-RDR[dF]RWK-NH2 (lactam 2-7) [Asp...Lys analog of peptide No. 10: Ac-Arg-cyclo(Asp-Arg-D-Phe-Arg-Trp-Lys)-NH2] | – | 68 | – | – | –
Ac-RDK[dF]RWK-NH2 (lactam 2-7, also called Peptide Structure (Asp...Lys) in the row of No. 16) [Asp...Lys analog of peptide No. 16: Ac-Arg-cyclo(Asp-Lys-D-Phe-Arg-Trp-Lys)-NH2] | – | 97 | – | – | 30
Ac-RDQ[dF]RWK-NH2 (lactam 2-7) [Asp...Lys analog of peptides No. 12 and No. 44: Ac-Arg-cyclo(Asp-Gln-D-Phe-Arg-Trp-Lys)-NH2] | 17 | 85 | 85 | 17 | –
Ac-RD[Dab][dF]RWK-NH2 (lactam 2-7) [Asp...Lys analog of peptides No. 6 and No. 43: Ac-Arg-cyclo(Asp-Dab-D-Phe-Arg-Trp-Lys)-NH2] | 0.3 | 91 | 91 | 0.3 | –
XEHFRWX (N-terminal acetyl; Nle at 1; D-Phe at 4; Orn at 7; side-chain lactam Glu2-Orn7; C-terminal amide (-NH2)) [Peptide No. 2: Ac-Nle-cyclo(Glu-His-D-Phe-Arg-Trp-Orn)-NH2] | 0.1 | 93 | – | – | 0.1
Ac-RE[Orn][dF]RW[Orn]-NH2 (lactam 2-7) [Peptide No. 8: Ac-Arg-cyclo(Glu-Orn-D-Phe-Arg-Trp-Orn)-NH2] | 0.4 | 95 | – | – | 9
Ac-REQ[dF]RW[Orn]-NH2 (lactam 2-7) [Peptide No. 12: Ac-Arg-cyclo(Glu-Gln-D-Phe-Arg-Trp-Orn)-NH2] | – | 96 | – | – | –
Ac-RE[Dab][dF]RW[Orn]-NH2 (lactam 2-7) [Peptide No. 6: Ac-Arg-cyclo(Glu-Dab-D-Phe-Arg-Trp-Orn)-NH2] | 0.3 | 94 | – | – | –
Ac-RD[Dab](Ac)[dF]RWK-NH2 (lactam 2-7; SMILES CC(=O)NCC[C@@H]1NC(=O)[C@@H](NC(=O)[C@H](CCCNC(=N)N)NC(C)=O)CC(=O)NCCCC[C@@H](C(N)=O)NC(=O)[C@H](Cc2c[nH]c3ccccc23)NC(=O)[C@H](CCCNC(=N)N)NC(=O)[C@@H](Cc2ccccc2)NC1=O) [Asp...Lys analog of peptide No. 18: Ac-Arg-cyclo(Asp-Dab(Acetyl)-D-Phe-Arg-Trp-Lys)-NH2] | – | 69 | – | – | –
Ac-RDH[dF]RWK-NH2 (lactam 2-7) [Asp...Lys analog of peptides No. 4 and No. 38: Ac-Arg-cyclo(Asp-His-D-Phe-Arg-Trp-Lys)-NH2] | – | 83 | 83 | – | –
Ac-[dR]DH[dF]RWK-NH2 (lactam 2-7) [Asp...Lys analog of peptide No. 39: Ac-D-Arg-cyclo(Asp-His-D-Phe-Arg-Trp-Lys)-NH2] | – | – | 89 | – | –
Ac-RE[Orn][dF]RW[Orn]-OH (lactam 2-7) [Peptide No. 7: Ac-Arg-cyclo(Glu-Orn-D-Phe-Arg-Trp-Orn)-OH] | – | 92 | – | – | –
Ac-REQ[dF]RW[Orn]-OH (lactam 2-7) [Peptide No. 11: Ac-Arg-cyclo(Glu-Gln-D-Phe-Arg-Trp-Orn)-OH] | – | 81 | – | – | –
Ac-RE[Ser(Bzl)][dF]RW[Orn]-OH (lactam 2-7) [Peptide No. 17: Ac-Arg-cyclo(Glu-Ser(Bzl)-D-Phe-Arg-Trp-Orn)-OH] | – | 55 | – | – | 6
Ac-RER[dF]RW[Orn]-NH2 (lactam 2-7) [Peptide No. 10: Ac-Arg-cyclo(Glu-Arg-D-Phe-Arg-Trp-Orn)-NH2] | – | 98 | – | – | –
Ac-RE[Hyp][dF]RW[Orn]-NH2 (lactam 2-7) [Peptide No. 14: Ac-Arg-cyclo(Glu-Hyp-D-Phe-Arg-Trp-Orn)-NH2] | – | 104 | – | – | –
Ac-REH[dF]RW[Orn]-OH (lactam 2-7) [Peptide No. 3: Ac-Arg-cyclo(Glu-His-D-Phe-Arg-Trp-Orn)-OH] | 0.7 | 83 | – | – | 24
Ac-REH[dF]RW[Orn]-NH2 (lactam 2-7) [Peptide No. 4: Ac-Arg-cyclo(Glu-His-D-Phe-Arg-Trp-Orn)-NH2] | 0.2 | 83 | – | – | 1
Ac-RE[Pro(trans-4-NH2)][dF]RW[Orn]-NH2 (lactam 2-7) [Peptide No. 32: Ac-Arg-cyclo(Glu-Pro(4R-NH2)-D-Phe-Arg-Trp-Orn)-NH2] | – | 55 | – | – | 6
Ac-REN[dF]RW[Orn]-NH2 (lactam 2-7) [Peptide No. 34: Ac-Arg-cyclo(Glu-Asn-D-Phe-Arg-Trp-Orn)-NH2] | 0.4 | 91 | – | – | 6
XEHFRWX (N-terminal acetyl; Nle at 1; D-Phe at 4; Orn at 7; side-chain lactam Glu2-Orn7; C-terminal -OH) [Peptide No. 1: Ac-Nle-cyclo(Glu-His-D-Phe-Arg-Trp-Orn)-OH] | 0.5 | 97 | – | – | –

Next, values leading:

Ec50 (nM), cAMP [1] [nM] | Emax (%), cAMP [1] [%] | Emax (%), cAMP [2] [%] | Ec50 (nM), cAMP [2] [nM] | Ki [3] [nM] | Binder
– | – | 89 | – | – | Ac-[dR][Orn]Q[dF]RWE-NH2 (lactam 2-7) [Peptide No. 45: Ac-D-Arg-cyclo(Orn-Gln-D-Phe-Arg-Trp-Glu)-NH2]
– | 69 | – | – | – | RDXFRWK (N-terminal acetyl; Cit (citrulline) at 3; D-Phe at 4; side-chain lactam Asp2-Lys7; C-terminal amide (-NH2)) [Asp...Lys analog of peptide No. 15: Ac-Arg-cyclo(Asp-Cit-D-Phe-Arg-Trp-Lys)-NH2]
9 | 79 | – | – | 64 | Ac-RDQ[dF]RWK-NHcPr (lactam 2-7, also called Peptide Structure (Asp...Lys) in the row of No. 19) [Asp...Lys analog of peptide No. 19: Ac-Arg-cyclo(Asp-Gln-D-Phe-Arg-Trp-Lys)-NH-cycProp]
– | 75 | – | – | – | Ac-RDR[dF]RWK-OH (lactam 2-7) [Asp...Lys analog of peptide No. 9: Ac-Arg-cyclo(Asp-Arg-D-Phe-Arg-Trp-Lys)-OH]
35 | 29 | – | – | 7 | Ac-RD[Met(O2)][dF]RWK-NH2 (lactam 2-7, also called Peptide Structure (Asp...Lys) in the row of No. 13) [Asp...Lys analog of peptide No. 13: Ac-Arg-cyclo(Asp-Met(O2)-D-Phe-Arg-Trp-Lys)-NH2]
– | 61 | – | – | 5 | Ac-RD[Pro(trans-4-NH2)][dF]RWK-NH2 (lactam 2-7, also called Peptide Structure (Asp...Lys) in the row of No. 32) [Asp...Lys analog of peptide No. 32: Ac-Arg-cyclo(Asp-Pro(4R-NH2)-D-Phe-Arg-Trp-Lys)-NH2]
– | 75 | – | – | – | Ac-RE[Dab](Ac)[dF]RW[Orn]-NH2 (lactam 2-7) [Peptide No. 18: Ac-Arg-cyclo(Glu-Dab(Acetyl)-D-Phe-Arg-Trp-Orn)-NH2]
– | 91 | – | – | – | Ac-REQ[dF]RW[Orn]-NHcPr (lactam 2-7) [Peptide No. 19: Ac-Arg-cyclo(Glu-Gln-D-Phe-Arg-Trp-Orn)-NH-cycProp]
– | 104 | – | – | 15 | Ac-REK[dF]RW[Orn]-NH2 (lactam 2-7) [Peptide No. 16: Ac-Arg-cyclo(Glu-Lys-D-Phe-Arg-Trp-Orn)-NH2]
– | 82 | – | – | – | Ac-RER[dF]RW[Orn]-OH (lactam 2-7) [Peptide No. 9: Ac-Arg-cyclo(Glu-Arg-D-Phe-Arg-Trp-Orn)-OH]
12 | 76 | – | – | 167 | Ac-REN[dF]RW[Orn]-OH (lactam 2-7) [Peptide No. 20: Ac-Arg-cyclo(Glu-Asn-D-Phe-Arg-Trp-Orn)-OH]
5 | 71 | – | – | – | Ac-RE[Met(O2)][dF]RW[Orn]-NH2 (lactam 2-7) [Peptide No. 13: Ac-Arg-cyclo(Glu-Met(O2)-D-Phe-Arg-Trp-Orn)-NH2]
– | – | 100 | – | – | Ac-R[Orn][Dab][dF]RWE-OH (lactam 2-7) [Peptide No. 42: Ac-Arg-cyclo(Orn-Dab-D-Phe-Arg-Trp-Glu)-OH]
– | 94 | – | – | – | Ac-RE[Dab][dF]RW[Orn]-OH (lactam 2-7) [Peptide No. 5: Ac-Arg-cyclo(Glu-Dab-D-Phe-Arg-Trp-Orn)-OH]
532 | 62 | – | – | – | Ac-RD[Orn](Ac)[dF]RWK-NH2 (lactam 2-7) [Asp...Lys analog of peptide No. 33: Ac-Arg-cyclo(Asp-Orn(Acetyl)-D-Phe-Arg-Trp-Lys)-NH2]
